Holding throughout (conditions): protein: recombinant; tags: N-terminal His-SUMO, removed by ULP1; label: FAM; single strand
The target in one series is T1, DDX21 core T494A (human, UniProt Q9NR30 188-563, T494A).
T1 sequence: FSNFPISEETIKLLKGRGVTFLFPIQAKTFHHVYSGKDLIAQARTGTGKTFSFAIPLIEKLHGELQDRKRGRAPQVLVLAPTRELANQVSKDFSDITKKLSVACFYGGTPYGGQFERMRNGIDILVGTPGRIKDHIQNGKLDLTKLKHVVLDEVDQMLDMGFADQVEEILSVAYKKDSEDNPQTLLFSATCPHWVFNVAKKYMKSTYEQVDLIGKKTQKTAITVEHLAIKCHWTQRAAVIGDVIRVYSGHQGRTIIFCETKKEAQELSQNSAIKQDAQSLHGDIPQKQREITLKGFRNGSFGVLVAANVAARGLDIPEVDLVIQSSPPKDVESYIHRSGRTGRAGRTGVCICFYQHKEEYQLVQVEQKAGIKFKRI
As to the kind of experiment: UV crosslinking; negligibly affected; MST: 50 mM Tris pH 7.5, 50 mM KCl, 2 mM MgCl2, 1 mM TCEP, 0.01% NP-40, 0.05 mg/mL BSA, 2 mM AMPPNP, 50 nM FAM-RNA; temperature not given; crosslinking buffer not in material.

The target of a further series is T2, DDX21 core T315A (human, UniProt Q9NR30 188-563, T315A).
T2 sequence: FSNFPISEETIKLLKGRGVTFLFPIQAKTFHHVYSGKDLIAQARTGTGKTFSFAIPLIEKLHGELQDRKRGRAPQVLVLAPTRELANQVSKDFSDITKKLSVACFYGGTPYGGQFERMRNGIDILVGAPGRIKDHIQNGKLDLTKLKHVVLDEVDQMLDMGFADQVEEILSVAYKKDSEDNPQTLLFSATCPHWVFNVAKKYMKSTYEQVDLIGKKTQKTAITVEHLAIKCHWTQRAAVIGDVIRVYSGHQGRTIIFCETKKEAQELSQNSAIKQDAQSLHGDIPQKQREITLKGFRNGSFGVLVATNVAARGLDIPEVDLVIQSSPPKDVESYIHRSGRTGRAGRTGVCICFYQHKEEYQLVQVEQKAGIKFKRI
The series is described as above.

The target in series [1] is T3, DDX21 helicase core (D1D2, DDX21-delNC) (human, UniProt Q9NR30 188-563).
T3 sequence: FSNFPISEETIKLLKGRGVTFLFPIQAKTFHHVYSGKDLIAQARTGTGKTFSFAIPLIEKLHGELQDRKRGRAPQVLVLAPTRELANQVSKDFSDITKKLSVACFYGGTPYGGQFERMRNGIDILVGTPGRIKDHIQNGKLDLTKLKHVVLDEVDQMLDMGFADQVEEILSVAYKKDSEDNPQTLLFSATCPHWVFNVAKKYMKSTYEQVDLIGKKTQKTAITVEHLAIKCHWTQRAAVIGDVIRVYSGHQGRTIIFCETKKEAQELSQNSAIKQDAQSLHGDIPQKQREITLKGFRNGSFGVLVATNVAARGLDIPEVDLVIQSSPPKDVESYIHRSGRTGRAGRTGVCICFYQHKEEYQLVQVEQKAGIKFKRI
As to the kind of experiment: MST; 2 mM AMPPNP, 2 mM MgCl2; value only in figure; MST: 50 mM Tris pH 7.5, 50 mM KCl, 2 mM MgCl2, 1 mM TCEP, 0.01% NP-40, 0.05 mg/mL BSA, 2 mM AMPPNP, 50 nM FAM-RNA; temperature not given; crosslinking buffer not in material.

In the next series the target is T4, DDX21 core 3R to A (human, UniProt Q9NR30 188-563, R270A;R318A;R476A).
T4 sequence: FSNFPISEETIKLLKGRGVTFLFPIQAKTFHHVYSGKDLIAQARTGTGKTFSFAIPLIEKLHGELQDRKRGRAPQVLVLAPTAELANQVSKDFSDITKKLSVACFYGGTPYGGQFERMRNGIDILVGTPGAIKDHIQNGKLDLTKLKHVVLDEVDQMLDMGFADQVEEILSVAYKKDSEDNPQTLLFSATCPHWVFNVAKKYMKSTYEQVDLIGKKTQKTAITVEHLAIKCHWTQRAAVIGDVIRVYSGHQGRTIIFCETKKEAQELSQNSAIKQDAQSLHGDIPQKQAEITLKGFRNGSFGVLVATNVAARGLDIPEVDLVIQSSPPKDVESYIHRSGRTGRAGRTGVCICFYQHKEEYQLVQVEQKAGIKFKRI
Put plainly: UV crosslinking; reduced by more than half; MST: 50 mM Tris pH 7.5, 50 mM KCl, 2 mM MgCl2, 1 mM TCEP, 0.01% NP-40, 0.05 mg/mL BSA, 2 mM AMPPNP, 50 nM FAM-RNA; temperature not given; crosslinking buffer not in material.

The next series has as its target T5, DDX21 core 4R to A (human, UniProt Q9NR30 188-563, R255A;R270A;R318A;R476A).
T5 sequence: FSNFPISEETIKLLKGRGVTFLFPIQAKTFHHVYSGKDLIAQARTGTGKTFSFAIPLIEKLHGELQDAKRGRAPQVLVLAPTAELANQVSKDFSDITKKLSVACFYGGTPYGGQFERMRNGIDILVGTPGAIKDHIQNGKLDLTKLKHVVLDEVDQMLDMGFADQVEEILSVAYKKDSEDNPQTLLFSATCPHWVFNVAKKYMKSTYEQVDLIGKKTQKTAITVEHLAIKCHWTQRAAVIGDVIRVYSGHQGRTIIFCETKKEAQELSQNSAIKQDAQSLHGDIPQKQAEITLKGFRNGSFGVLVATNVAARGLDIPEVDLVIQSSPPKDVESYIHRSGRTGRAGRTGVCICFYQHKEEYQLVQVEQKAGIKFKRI
The description is as above.

A value given as a limit tells only on which side of the number the result lay.

In the case of UUUUUUUUUUUUUUU (ssRNA) [FAM-U15], the binding result (in the series with DDX21 core T494A; with DDX21 core T315A; in series [1]) was “binds” throughout. Also, the binding signal with DDX21 core 3R to A and with DDX21 core 4R to A was < 50 % of WT each time.
